T1: C-terminally 3×FLAG-1×HA-tagged mouse MINION (Mus musculus) (UniProt Q2Q5T5)
T1 sequence: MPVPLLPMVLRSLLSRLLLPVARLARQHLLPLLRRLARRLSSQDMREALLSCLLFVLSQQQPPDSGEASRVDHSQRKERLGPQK

B1: Synaptopodin 2-like protein (protein, UniProt Q8BWB1 1-975, looked up)
Synaptopodin 2-like protein: MGAEEEVQVTLAGGAPWGFRLQGGTEQRKPLQIRRRSQAGRAGLRERDQLLAINGVSCTNFSHASAMTLIDASGRQLVLTVRRVTDEGSVRSPSPGELQVLSPLSPLSPEPPGAPVSQALQPTSLRSPPDSEAYYGETDSDVDGPATQEKPRRTRRRGPARPSLPGAPPDEVYLSDSPAEPAPVKTGSPSQGDSRVSSPSWEEGAALQPPPAEALLLPHGPLRPGPHLIPMVGPVPHPVAEDLTTTYTQKAKQAKLQRAESLQEKSVKEARTKCRTIASLLTAAPNPHSKGVLMFKKRRQRAKKYTLVSFGAAAGTGTEEEDGIPPTSESELDEETFSDARSLTNQSDWDSPYLDMELARAGLGTAESQNSGLGGQLSEVSGRGVQLFEQQRQRVASSSQELAQVGPAAMLNGQSLQSPPRAQSAPPEAAVLPLSPLSVPAVSPTPFFPDGGAPIPAPSIFNRSARPFTPGLQGQRSGTTSVIFRPLAPKKVNEGLGSTSPAPSPFAAPPQGPTPLPSFTTVVPSHTPVSGASSSTQRSSGPVTATSSLYIPAPSRPVTPGGAPEPPTPPSAAAMTSTASIFLSTPLRNSARPEAPGPAVPEPASVREQRISVPAARTGILQEARRRGTRKQMFRPGKEETKNSPNPELLSLVQNLDEKPRAGGAESGPEEDALSLGAEACNFMQPLGGRSYKTLPQVSPKTPPPMAPKTPPPTTPKTPPPVAPKPGSRGLLDGLVNGSTPMVGIPEPPRLQGRGGELFAKRQSRADRYVVEATSGSSLNPGLRPRSPSPTPSLPPSWKYSPNIRAPPPIAYNPLLSPFFPQAARTLPNKAQSQGPRVTPKQGIKALDFMRHQPYQLKTAMFCFDEGSSTPGPTSGPPKTARVQEIRRFSTPAPQPTAEPLAPTVLVPRAATTLDEPIWRAELASTPVPNPDHQESLRSFAAAPSSCGFQVARPRFSATRTGLQAHVWRPGAGHQ
B2: C-terminally 3×FLAG-1×HA-tagged mouse MINION (other)
chain: T1 sequence
notes: Construct of the mouse MINION CDS (84 aa isoform) expressed from the pCIGAR retroviral vector; The AP-MS text only says 'FLAG-tagged Minion'; also called FLAG-tagged Minion; 3F1H-tagged mouse MINION; not shown: C-terminal 3×FLAG-1×HA tag

T2 sequence (P16858 whole entry): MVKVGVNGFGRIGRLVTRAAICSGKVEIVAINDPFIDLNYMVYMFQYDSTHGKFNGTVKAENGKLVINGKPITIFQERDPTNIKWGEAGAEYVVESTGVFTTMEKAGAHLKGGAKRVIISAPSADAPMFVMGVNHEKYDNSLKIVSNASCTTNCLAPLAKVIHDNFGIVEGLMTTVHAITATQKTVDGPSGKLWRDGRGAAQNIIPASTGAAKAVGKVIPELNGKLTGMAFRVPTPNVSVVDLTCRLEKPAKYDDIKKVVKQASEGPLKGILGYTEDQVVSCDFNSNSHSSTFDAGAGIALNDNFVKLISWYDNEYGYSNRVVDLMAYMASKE

The first experiment deals with T1, C-terminally 3×FLAG-1×HA-tagged mouse MINION (Mus musculus). The experiment in a line: AP-MS, FLAG-tagged Minion bait, differentiating C2C12 myoblasts.
Regarding “ATPase family AAA domain-containing protein 1 (from UniProt Q9D5T0 1-361) (enzyme)”, the Sequence Coverage (%) was 30% and the Unique Peptide was found to be 7. In turn, “Cluster of Myc box-dependent-interacting protein 1 (from UniProt O08539 2-588)” gave a Sequence Coverage (%) of 42% and a Unique Peptide of 16.

Molecule Dysferlin (from UniProt Q9ESD7 1-2090) had a Sequence Coverage (%) of 13% and a Unique Peptide of 17.

The molecule “Coproporphyrinogen-III oxidase, mitochondrial (from UniProt P36552 99-443) (enzyme)” registered a Sequence Coverage (%) of 52% and a Unique Peptide of 19. “Voltage-dependent anion-selective channel protein 1 (from UniProt Q60932 1-296)” came in with a Sequence Coverage (%) of 15% and a Unique Peptide of 10. “NADH-ubiquinone oxidoreductase 75 kDa subunit, mitochondrial (from UniProt Q91VD9 24-727) (enzyme)” came in with a Sequence Coverage (%) of 20% and a Unique Peptide of 9.

The molecule “Very long-chain specific acyl-CoA dehydrogenase, mitochondrial (from UniProt P50544 42-656) (enzyme)” registered a Sequence Coverage (%) of 57% and a Unique Peptide of 26.

“Vacuolar protein sorting-associated protein 45 (from UniProt P97390 1-570)” registered a Sequence Coverage (%) of 15% and a Unique Peptide of 7.

For “Aldehyde dehydrogenase family 3 member B1 (from UniProt Q80VQ0 1-465) (enzyme)”, the Sequence Coverage (%) came out at 46% and the Unique Peptide was 15. On the same counts, the results for “Cytochrome b-c1 complex subunit 1, mitochondrial (from UniProt Q9CZ13 35-480)” are 41% and 13. The matching figures for Syntaxin-8 (from UniProt O88983 1-236): 19% and 4. “Calcium uniporter protein, mitochondrial (from UniProt Q3UMR5 50-350)”: the Sequence Coverage (%) came to 38% and the Unique Peptide stood at 12. The matching figures for “Inositol 1,4,5-trisphosphate receptor type 3 (from UniProt P70227 1-2670)”: 6% and 11. Consider “Acetolactate synthase-like protein (from UniProt Q8BU33 1-632) (enzyme)”, for which the Sequence Coverage (%) is 32% and the Unique Peptide worked out at 10.

In the case of “T-complex protein 1 subunit theta (from UniProt P42932 2-548)”, the Sequence Coverage (%) was 48% and the Unique Peptide was 22. The matching figures for “ATP synthase subunit beta, mitochondrial (from UniProt P56480 47-529) (enzyme)”: 77% and 26. The molecule “Calsequestrin-2 (from UniProt O09161 20-415)” registered a Sequence Coverage (%) of 24% and a Unique Peptide of 9. As to “Trifunctional enzyme subunit alpha, mitochondrial (from UniProt Q8BMS1 37-763)”, the Sequence Coverage (%) was found to be 66% and the Unique Peptide is 33. “Adenylate kinase isoenzyme 4, mitochondrial (from UniProt Q9WUR9 1-223)” yielded a Sequence Coverage (%) of 52% and a Unique Peptide of 6.

In turn, “NADH dehydrogenase [ubiquinone] 1 alpha subcomplex subunit 10, mitochondrial (from UniProt Q99LC3 36-355) (enzyme)” showed a Sequence Coverage (%) of 24% and a Unique Peptide of 7. “Nascent polypeptide-associated complex subunit alpha, muscle-specific form (from UniProt P70670 1-2187)” showed a Sequence Coverage (%) of 18% and a Unique Peptide of 23. As to “Junctional sarcoplasmic reticulum protein 1 (from UniProt Q3MI48 1-332)”, the Sequence Coverage (%) stood at 53% and the Unique Peptide was 8. As for “B-cell receptor-associated protein 31 (from UniProt Q61335 2-245)”, the Sequence Coverage (%) is 27% and the Unique Peptide is 7.

“Trifunctional enzyme subunit beta, mitochondrial (from UniProt Q99JY0 35-475)” displayed a Sequence Coverage (%) of 68% and a Unique Peptide of 22. On the same counts, the results for “Cytoplasmic dynein 1 heavy chain 1 (from UniProt Q9JHU4 2-4644)” are 46% and 157. In the case of T-complex protein 1 subunit alpha, the Sequence Coverage (%) amounted to 52% and the Unique Peptide is 20.

Molecule “Sorbin and SH3 domain-containing protein 2 (from UniProt Q3UTJ2 1-1180)” displayed a Sequence Coverage (%) of 7% and a Unique Peptide of 6. Molecule “Isovaleryl-CoA dehydrogenase, mitochondrial (from UniProt Q9JHI5 31-424) (enzyme)” returned a Sequence Coverage (%) of 49% and a Unique Peptide of 16. Molecule “Eukaryotic initiation factor 4A-II (from UniProt P10630 1-407)” yielded a Sequence Coverage (%) of 53% and a Unique Peptide of 9. For “Cluster of Guanine nucleotide-binding protein G(s) subunit alpha isoforms short”, the Sequence Coverage (%) turned out to be 34% and the Unique Peptide was found to be 9. Consider “Apolipoprotein O-like (from UniProt Q78IK4 28-265)”, for which the Sequence Coverage (%) was 49% and the Unique Peptide was 9. With “Cytoskeleton-associated protein 5 (from UniProt A2AGT5 1-2032)”, the Sequence Coverage (%) was 8% and the Unique Peptide came out at 13. With “T-complex protein 1 subunit beta (from UniProt P80314 2-535)”, the Sequence Coverage (%) was determined as 55% and the Unique Peptide is 20.

Turning to “Tripartite motif-containing protein 72 (from UniProt Q1XH17 1-477)”, the Sequence Coverage (%) was found to be 55% and the Unique Peptide amounted to 16. Regarding “NADH dehydrogenase [ubiquinone] flavoprotein 1, mitochondrial (from UniProt Q91YT0 21-464) (enzyme)”, the Sequence Coverage (%) is 24% and the Unique Peptide came out at 7.

The molecule “DnaJ homolog subfamily C member 16 (from UniProt Q80TN4 26-772)” had a Sequence Coverage (%) of 19% and a Unique Peptide of 9. Molecule “Signal recognition particle 68 kDa protein (from UniProt Q8BMA6 1-625)” yielded a Sequence Coverage (%) of 25% and a Unique Peptide of 11. Consider B1, for which the Sequence Coverage (%) is 8% and the Unique Peptide was determined as 5.

The next experiment concerns the target T2, Gapdh (mouse, UniProt P16858 1-333).
T2 construct: also called glyceraldehyde-3-phosphate dehydrogenase
Put plainly: Western blot of the FLAG-tagged Minion affinity purification.
Regarding B2, the binding result is on record as “no binding”.
